Results: article doi:10.1101/2023.07.25.550453 (bioRxiv, 2023)
Positions count from the first letter of the chain named. Names and notes keep the numbering of the source. Read-outs that look alike come from different tables or passages of the source. Values belong to the molecule of their own block, whether it stands above or below them.

T1: nuclear cap-binding complex (CBC: CBP80ΔNLS + CBP20), human (human, UniProt Q09161 20-790; P52298 1-156)
T1 sequence 1: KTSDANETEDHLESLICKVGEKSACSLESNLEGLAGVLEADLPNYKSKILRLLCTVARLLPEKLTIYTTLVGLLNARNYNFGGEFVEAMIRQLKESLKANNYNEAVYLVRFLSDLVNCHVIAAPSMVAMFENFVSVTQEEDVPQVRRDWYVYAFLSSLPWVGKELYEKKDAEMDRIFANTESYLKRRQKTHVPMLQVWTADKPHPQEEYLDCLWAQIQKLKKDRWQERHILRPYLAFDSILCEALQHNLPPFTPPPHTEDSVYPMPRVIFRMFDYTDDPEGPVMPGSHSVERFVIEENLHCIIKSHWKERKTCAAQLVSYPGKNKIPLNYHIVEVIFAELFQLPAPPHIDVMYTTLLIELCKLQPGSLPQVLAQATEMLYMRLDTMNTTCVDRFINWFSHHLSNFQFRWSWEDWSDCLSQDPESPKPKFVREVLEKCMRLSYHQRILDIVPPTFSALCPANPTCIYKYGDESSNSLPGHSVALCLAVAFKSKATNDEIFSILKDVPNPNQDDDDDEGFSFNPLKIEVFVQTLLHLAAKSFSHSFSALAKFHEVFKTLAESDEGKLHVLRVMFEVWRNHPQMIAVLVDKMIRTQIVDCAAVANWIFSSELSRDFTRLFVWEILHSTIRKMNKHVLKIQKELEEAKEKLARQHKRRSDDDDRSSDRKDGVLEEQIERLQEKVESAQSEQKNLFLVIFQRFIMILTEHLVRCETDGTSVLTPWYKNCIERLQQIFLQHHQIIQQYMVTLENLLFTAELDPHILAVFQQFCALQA
T1 sequence 2: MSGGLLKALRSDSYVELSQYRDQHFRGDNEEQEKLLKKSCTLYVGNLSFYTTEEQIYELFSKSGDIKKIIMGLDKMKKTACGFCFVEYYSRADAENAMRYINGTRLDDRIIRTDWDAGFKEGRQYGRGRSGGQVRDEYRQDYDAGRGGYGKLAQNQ

T2: CBP80ΔNLS (NCBP1), human (human, UniProt Q09161 20-790)
T2 sequence (looked up): T1 sequence 1

B1: MBP-ZC3H18^117-258 (domain or fragment)
chain: SSVTRELDEHELDYDEEVPEEPAPAVQEDEAEKAGAEDDEEKGEGTPREEGKAGVQSVGEKESLEAAKEKKKEDDDGEIDDGEIDDDDLEEGEVKDPSDRKVRPRPTCRFFMKGNCTWGMNCRFIHPGVNDKGNYSLITKAD
B2: NELF-E^244-380 (domain or fragment, human, UniProt P18615 244-380, looked up)
chain: GPFRRSDSFPERRAPRKGNTLYVYGEDMTPTLLRGAFSPFGNIIDLSMDPPRNCAFVTYEKMESADQAVAELNGTQVESVQLKVNIARKQPMLDAATGKSVWGSLAVQNSPKGCHRDKRTQIVYSDDVYKENLVDGF
B3: NELF-E^244-380 (W345E) (domain or fragment, human, UniProt P18615 244-380, looked up)
chain: B2 chain with W102E
B4: His-MBP-NCBP3^360-620 (domain or fragment, human, UniProt Q53F19 360-620, looked up)
chain: DQDMDADDRVVVEYHEELPALKQPRERSASRRSSASSSDSDEMDYDLELKMISTPSPKKSMKMTMYADEVESQLKNIRNSMRADSVSSSNIKNRIGNKLPPEKFADVRHLLDEKRQHSRPRPPVSSTKSDIRQRLGKRPHSPEKAFSSNPVVRREPSSDVHSRLGVPRQDSKGLYADTREKKSGNLWTRLGSAPKTKEKNTKKVDHRAPGAEEDDSELQRAWGALIKEKEQSRQKKSRLDNLPSLQIEVSRESSSGSEAES
B5: CBP20 (NCBP2), human (natural protein)
chain: T1 sequence 2
B6: His-MBP-PHAX^103-196 (domain or fragment, human, UniProt Q9H814 103-196, looked up)
chain: SQKPPVAGGKKINNIWGAVLQEQNQDAVATELGILGMEGTIDRSRQSETYNYLLAKKLRKESQEHTKDLDKELDEYMHGGKKMGSKEEENGQGH
B7: His-MBP-NCBP3^560-620 (domain or fragment, human, UniProt Q53F19 560-620, looked up)
chain: TKKVDHRAPGAEEDDSELQRAWGALIKEKEQSRQKKSRLDNLPSLQIEVSRESSSGSEAES
B8: NCBP3^560-620 (tag cleaved, cryo-EM sample) (domain or fragment, human, UniProt Q53F19 560-620, looked up)
chain: B7 chain

Columns and labels:
[1] = target: ARS2^147-871 (human); experiment: ITC
[2] = target: ZC3H18 double ARM motif peptide, biotinylated (human); experiment: BLI
[3] = target: PHAX^1-18 peptide (ARM 9-EDGQL), biotinylated (human) (UniProt Q9H814); experiment: BLI
[4] = target: ARS2^147-871 (human); experiment: ITC; remark: listed apart in the source
[5] = target: T1, nuclear cap-binding complex (CBC: …); experiment: ITC
[6] = target: T1, nuclear cap-binding complex (CBC: …); experiment: pull-down
[7] = target: CBP80 (delta NLS);CBP20;PHAX (human;human;human, UniProt Q09161;P52298;Q9H814 20-790;1-156;1-394, del1-19||); experiment: cryo-EM
[8] = target: T2, CBP80ΔNLS (NCBP1), human; experiment: cryo-EM structure
[9] = target: full-length PHAX (human, UniProt Q9H814 1-394); experiment: cryo-EM structure
[10] = target: T1, nuclear cap-binding complex (CBC: …); experiment: ITC; remark: listed apart in the source
[11] = target: T1, nuclear cap-binding complex (CBC: …); experiment: ITC; remark: listed apart in the source
[12] = target: B5; experiment: cryo-EM structure
[13] = target: T1, nuclear cap-binding complex (CBC: …); experiment: SPR

full-length PHAX (human, UniProt Q9H814 1-394), sequence (Q9H814 whole entry): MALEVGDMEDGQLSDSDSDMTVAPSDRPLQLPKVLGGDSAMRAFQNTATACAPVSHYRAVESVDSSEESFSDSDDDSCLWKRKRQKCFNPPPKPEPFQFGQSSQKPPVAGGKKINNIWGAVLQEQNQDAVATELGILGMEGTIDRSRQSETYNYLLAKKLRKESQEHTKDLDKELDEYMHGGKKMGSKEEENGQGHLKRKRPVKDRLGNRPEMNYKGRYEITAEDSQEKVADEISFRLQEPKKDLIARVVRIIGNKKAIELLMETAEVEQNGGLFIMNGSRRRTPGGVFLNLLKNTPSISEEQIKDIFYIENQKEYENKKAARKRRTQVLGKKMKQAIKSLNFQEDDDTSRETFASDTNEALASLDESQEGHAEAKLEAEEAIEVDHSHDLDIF
CBP80 (delta NLS);CBP20;PHAX, sequence (Q9H814 whole entry, stated change not applied, one chain of several): as the sequence (Q9H814 whole entry) above

Kd [1]: 4100 nM
Molecule: full-length PHAX (from UniProt Q9H814 1-394) (natural protein)

Kd [2]: 7700 nM
Kd [3]: 6100 nM
Molecule: ARS2^147-871 (domain or fragment)

Molecule: B1
Kd [4]: 700 nM

Molecule: B2
Kd [5]: 113 nM

Molecule: B3
Kd [5]: 1300 nM

Molecule: B4
binding result [6]: binds

Molecule: AAUCUAUAAUAG (ssRNA, 5' m7Gppp cap) [capped 12-mer RNA (m7Gppp-AAUCUAUAAUAG)]
binding result [7]: binds

Kd [4]: 3500 nM
Molecule: KESLEAAKEKKKEDDDGEIDDGEIDDDDLEEGEVKDPSD (domain or fragment) [MBP-ZC3H18^177-215]

Molecule: B5
binding result [8]: binds
binding result [9]: binds

Kd [5]: 222 nM
Molecule: TKKVDHRAPGAEEDDSELQRAWGALIKEKEQSRQKKSR (domain or fragment, human, UniProt Q53F19 560-597, looked up) [NCBP3^560-620 with C-terminal residues 598-620 removed]

Kd [5]: 6000 nM
Molecule: TKKVDHRAPGAEEDDSELQRAWGALIKEKEQ (domain or fragment, human, UniProt Q53F19 560-590, looked up) [NCBP3^560-620 truncated to residue 590]

Molecule: B6
Kd [10]: 2400 nM

Molecule: B7
Kd [11]: ~173 nM
Kd [10]: ~115 nM

Molecule: B8
binding result [12]: binds

Kd [13]: 150 nM
Molecule: ESAWERGLRHAKEVLKKATIRKEQEPDFEEKRFTVTIGEDER (domain or fragment, human, UniProt Q86VM9 298-339, looked up) [His-MBP-ZC3H18^298-339]
